Substitutions are numbered along the chain they refer to.
B1: anti-Aβ oligomer humanized antibody HV0LV2a (antibody, V domains shown)
VH: QVQLVQSGAEVKKPGASVKVSCKASGYTFTSYWMHWVRQAPGQGLEWMGEINPRNGGTNNNENFKRRVTITADTSTSTAYMELSSLRSEDTAVYYCARDGNYDPFAYWGQGTLVTVSS
VL: DIVMTQSPLSLPVTPGEPASISCRSSQSLVHSNGNTYLHWYLQKPGQSPKLLIYKVSNRFSGVPDRFSGSGSGTDFTLKISRVEAEDVGVYFCSQSTHVPPYTFGQGTKLEIK
notes: also called 6E4HV0 + LV2a
B2: anti-Aβ oligomer humanized antibody HV0LV0 (antibody, V domains shown)
VH: B1 VH
VL: B1 VL with K50Q, F92Y
notes: Whole humanized antibody expressed from vector pKANTEX93 (WO 97/10354) with human constant regions; Produced in FUT8 knockout CHO/DG44 cells (no core fucose); also called 6E4HV0 + 6E4LV0
B3: anti-Aβ oligomer humanized antibody HV0LV4 (antibody, V domains shown)
VH: B1 VH
VL: B1 VL with I2V, P15L
notes: also called 6E4HV0 + LV4
B4: anti-Aβ oligomer humanized antibody HV12LV4 (antibody, V domains shown)
VH: QVQLVQSGAEVVKPGASVKLSCKASGYTFTSYWMHWVKLAPGQGFEWIGEINPRNGGTNNNENFKRKATLTVDKSTSTAYMELSSLRSEDTAVYYCTRDGNYDPFAYWGQGTLVTVSS
VL: B1 VL with I2V, P15L

What was measured:
[1] = target: T1, Aβ oligomers prepared from Amyloid β-protein, Human 1-42 peptide (human, UniProt P05067 672-713); assay: SPR (Biacore T100), Aβ oligomers amine-coupled on CM5 chip, antibody injected, Bivalent Analyte model (kd1/ka1)
T1 construct: domain: Amyloid β-protein, Human 1-42 peptide; Non-covalent oligomer of synthetic Aβ1-42; Immobilized on a CM5 chip by amine coupling; also called amyloid β protein oligomer
Protocol: (§1) All the following operations were performed using Biocore T100 (manufactured by GE Healthcare Bio-sciences). The Aβ oligomers obtained in (1) of Example 2 were immobilized to the CM5 sensor chip (GE Healthcare Bio-sciences) using the amine coupling method.
(§2) Onto the chip to which the Aβ oligomers were immobilized for measurement samples prepared to have 8 levels of density by diluting from 30 μg/mL by doubling dilution in a stepwise manner (HV0LV0, HV0LV2a, HV0LV4 and HV12LV4) was sequentially injected and measured in the order from the lower density based on the automatic program of the multi-kinetics.
(§3) Using the analysis software attached to the device, Biacore T100 Evaluation software (manufactured by Biacore Life Science), analysis was carried out with the Bivalent Analyte model to calculate the binding rate constant ka and the dissociation rate constant kd of each of the antibody against Aβ oligomers.

[2] = target: T1, Aβ oligomers prepared from Amyloid …; assay: SPR (Biacore T100), Aβ oligomers amine-coupled on CM5 chip, antibody injected, Bivalent Analyte model (kd1)
Protocol: as §1, §2, §3

[3] = target: T1, Aβ oligomers prepared from Amyloid …; assay: SPR (Biacore T100), Aβ oligomers amine-coupled on CM5 chip, antibody injected, Bivalent Analyte model (ka1)
Protocol: as §1, §2, §3

[4] = target: T2, Aβ monomers prepared from Biotin-beta-Amyloid, Human 1-40 (human, UniProt P05067 672-711, Biotin (position not stated; printed as "Biotin-beta-Amyloid, Human 1-40")); assay: SPR (Biacore T100), biotin-Aβ1-40 monomers captured on SA chip, antibody injected
T2 construct: domain: beta-Amyloid, Human 1-40; Captured on an SA sensor chip through biotin; also called amyloid β protein monomer
Protocol: In order to analyze the binding activity of the respective anti-Aβ oligomer humanized antibodies (HV0LV0, HV0LV2a, HV0LV4 and HV12LV4) against Aβ monomers, the binding activity was measured in the same manner as in (1) of this Example. In addition, the binding activity of anti-Aβ antibody 6E10 (manufactured by CONVANCE) was measured as a control antibody.
The Aβ monomers obtained in (2) of Example (2) were immobilized to the SA sensor chip (manufactured by GE Healthcare Bio-sciences) by the biotin capturing method. Onto the chip to which the Aβ monomers were immobilized, samples for measurement, which were prepared to have 5 levels of density by diluting from 30 μg/mL by doubling dilution in a stepwise manner (6E10, HV0LV0, HV0LV2a, HV0LV4 and HV12LV4), were sequentially injected and measured in the order from the lower density based on the automatic program of the multi-kinetics mode.

T1 sequence (P05067 672-713 limits assumed): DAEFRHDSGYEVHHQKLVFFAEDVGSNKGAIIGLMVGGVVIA
T2 sequence (P05067 672-711 limits assumed): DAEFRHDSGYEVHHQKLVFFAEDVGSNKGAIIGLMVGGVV

Binder | Kd [1] [nM] | koff [2] [s⁻¹] | kon [3] [M⁻¹ s⁻¹] | binding result [4]
B1 | 61 | 0.00039 | 6400 | no binding (tested: 30 µg/mL highest of 5 two-fold dilutions)
B2 | 40 | 0.00069 | 17000 | no binding (tested: 30 µg/mL highest of 5 two-fold dilutions)
B3 | 71 | 0.0005 | 7000 | no binding (tested: 30 µg/mL highest of 5 two-fold dilutions)
B4 | 300 | 0.00081 | 2700 | no binding (tested: 30 µg/mL highest of 5 two-fold dilutions)

From patent US20120009179A1 (Kyowa Kirin, published 2012)
